{
  "source": "paper PMC4014319",
  "about": "“Structure of catabolite activator protein with cobalt(II) and sulfate” (Acta Crystallographica. Section F, Structural Biology …, 2014)",
  "proteins": {"B1": {"name": "catabolite activator protein (CAP) (natural protein, Escherichia coli, UniProt P0ACJ8 1-210, looked up)", "chain": "MVLGKPQTDPTLEWFLSHCHIHKYPSKSTLIHQGEKAETLYYIVKGSVAVLIKDEEGKEMILSYLNQGDFIGELGLFEEGQERSAWVRAKTACEVAEISYKKFRQLIQVNPDILMRLSAQMARRLQVTSEKVGNLAFLDVTGRIAQTLLNLAKQPDAMTHPDGMQIKITRQEIGQIVGCSRETVGRILKMLEDQNLISAHGKTIVVYGTR", "notes": "crystallised with cobalt(II) and sulfate; also called cAMP–CAP"}},
  "target": "the molecule itself",
  "assay": "crystal structure; hanging-drop vapor diffusion, 20°C, 0.01 M CoCl2.6H2O, 0.1 M MES pH 6.5, 2.5 M ammonium sulfate; sample 0.1 mM CAP dimer, 0.05 mM DNA duplex, 0.4 mM cyclic AMP (no DNA in the crystal); space group P2(1)2(1)2, one dimer in the asymmetric unit, 1.97 Å",
  "data": [
    {"protein": "B1", "values": [
      {"measurement": "binding result", "result": "binds"}
    ]}
  ]
}
